The record followed here is US20080199879A1.

Test [1] addresses 15 L-β33-42 peptide+ruthenium complex-labeled polylysine-bound substance. The test can be described thus: competitive electrochemiluminescence immunoassay, no competitor: labeled peptide composite bound to bead-bound 21F12.
The target in test [2] is Aβ1-42 synthetic peptide (produced by Peptide Institute, Inc.). The experiment in a line: electrochemiluminescence double antibody sandwich; 21F12 on magnetic beads, ruthenium-labeled 3D6 detection; Aβ1-42 at 1 pg/mL.
The target is the same in test [3]. The experiment in a line: electrochemiluminescence double antibody sandwich; 21F12 on magnetic beads, ruthenium-labeled 3D6 detection; Aβ1-42 at 5 pg/mL.
For test [4], the target named is enzyme degradation product of the Aβ1-42 synthetic peptide (trypsin treated Aβ1-42 synthetic peptide). The test can be described thus: electrochemiluminescence double antibody sandwich; 21F12 beads, ruthenium-labeled 3D6 detection; trypsin-treated Aβ1-42 sample.
For test [5], the target named is 15 L-β33-42 peptide+ruthenium complex-labeled polylysine-bound substance. The test can be described thus: competitive electrochemiluminescence immunoassay, no competitor: labeled peptide composite (1 µg/ml) bound to bead-bound 21F12.
Test [6] has as its target Aβ1-42 synthetic peptide (produced by Peptide Institute, Inc.). The experiment in a line: electrochemiluminescence double antibody sandwich; 21F12 on magnetic beads, ruthenium-labeled 3D6 detection; Aβ1-42 at 10 pg/mL.
Test [7] has the same target. The test can be described thus: electrochemiluminescence double antibody sandwich; 21F12 on magnetic beads, ruthenium-labeled 3D6 detection; Aβ1-42 at 25 pg/mL.
Test [8] has the same target. The test can be described thus: electrochemiluminescence double antibody sandwich; 21F12 on magnetic beads, ruthenium-labeled 3D6 detection; Aβ1-42 at 50 pg/mL.
The target is the same in test [9]. The test can be described thus: competitive electrochemiluminescence immunoassay, no competitor: ruthenium-labeled 21F12 (0.1 µg/ml) bound to bead-bound Aβ1-42.
Test [10] has the same target. The test can be described thus: electrochemiluminescence double antibody sandwich; 21F12 on magnetic beads, ruthenium-labeled 3D6 detection; Aβ1-42 at 0.5 pg/mL.
For test [11] the target is unchanged. The experiment in a line: electrochemiluminescence double antibody sandwich; 21F12 on magnetic beads, ruthenium-labeled 3D6 detection; Aβ1-42 at 100 pg/mL.
For test [12] the target is unchanged. The test can be described thus: electrochemiluminescence double antibody sandwich; 21F12 beads, ruthenium-labeled 3D6 detection; untreated Aβ1-42 control sample.
Test [13] has as its target enzyme degradation product of the Aβ1-42 synthetic peptide (trypsin treated Aβ1-42 synthetic peptide). The experiment in a line: electrochemiluminescence double antibody sandwich; 21F12 beads, ruthenium-labeled 3D6 detection; trypsin-treated Aβ1-42 sample against untreated control.

15 L-β33-42 peptide+ruthenium complex-labeled polylysine-bound substance, sequence (peptide, as listed by the source): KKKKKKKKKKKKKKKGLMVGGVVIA

Regarding “21F12 mouse monoclonal antibody (produced by Innogenetics Inc.)”, the ECL value in [1] is 18100; in [2], 1840; in test [3], 10800; in test [4] it was 1090; in [5], 17000; in [6], 22900. In addition, the ECL value was 75800 in test [7]; 160000 in [8]; 34400 in test [9]; 1080 in test [10]; 345000 in test [11]; 12800 in test [12]. Further, the Difference from the blank (ECL value) in test [2] turned out to be 1370; in test [3], 10300; in test [6] it was 22400; in test [7] it was 75300; in [8] it was 160000; in test [10] it was 614. Besides, in [11], the Difference from the blank (ECL value) worked out at 345000. In [13], the % (relative ratio of measured value, control sample = 100%) was 9%.
